A word on the Kd: it is the equilibrium constant for the complex coming apart.

This note sets out measurements from publication PMC2935386, “Dissecting the Relation between a Nuclear Receptor and GATA: Binding Affinity Studies of Thyroid Hormone Receptor and GATA2 on TSHβ Promoter”.

Data set [1] addresses T1, GATA2-Zf (UniProt P23769 291-412). Briefly: fluorescence anisotropy; Hill n 1.3±0.4; Fluorescence anisotropy: 10 nM DNA, 20 mM Hepes pH 8.0, 50 mM NaCl, 1 mM MgCl2, 3 mM DTT, 5% glycerol, 10°C; agarose gel 1.3% in 0.5x TBE. Particulars: protein: recombinant; tags: His, thrombin treated; label: 5' fluorescein (FITC) on forward strand; blunt.
For data set [2], the target named is T2, TRβ1 DBD-LBD (TR DL, TRβ1ΔAB) (human, UniProt P10828 102-461).
T2 sequence: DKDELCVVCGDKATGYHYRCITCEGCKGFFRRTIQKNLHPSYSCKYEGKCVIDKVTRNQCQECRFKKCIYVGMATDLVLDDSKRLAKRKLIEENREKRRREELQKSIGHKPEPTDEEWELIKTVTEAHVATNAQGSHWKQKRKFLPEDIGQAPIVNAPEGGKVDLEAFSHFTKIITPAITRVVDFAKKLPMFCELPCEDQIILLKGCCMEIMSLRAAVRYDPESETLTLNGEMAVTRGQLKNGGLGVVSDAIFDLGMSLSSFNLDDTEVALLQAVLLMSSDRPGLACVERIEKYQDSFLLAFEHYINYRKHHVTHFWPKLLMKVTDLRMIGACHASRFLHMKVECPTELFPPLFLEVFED
Briefly: fluorescence anisotropy; no T3; up to 10000 nM; Fluorescence anisotropy: 10 nM DNA, 20 mM Hepes pH 8.0, 50 mM NaCl, 1 mM MgCl2, 3 mM DTT, 5% glycerol, 10°C; agarose gel 1.3% in 0.5x TBE. The conditions noted are these: protein: recombinant; tags: His (pET28a); chain copies: 2; label: 5' fluorescein (FITC) on forward strand; blunt. A general note: Polarisation of emitted light reports the rotation of a fluorescent probe.

Data set [3] concerns the target T2, TRβ1 DBD-LBD (TR DL, TRβ1ΔAB). Briefly: fluorescence anisotropy; T3; Hill n 2±0.4; Fluorescence anisotropy: 10 nM DNA, 20 mM Hepes pH 8.0, 50 mM NaCl, 1 mM MgCl2, 3 mM DTT, 5% glycerol, 10°C; agarose gel 1.3% in 0.5x TBE. The conditions noted are these: protein: recombinant; tags: His (pET28a); chain copies: 2; label: 5' fluorescein (FITC) on forward strand; blunt.

For data set [4] the target is unchanged. Briefly: fluorescence anisotropy; no T3; Hill n 1±0.1; Fluorescence anisotropy: 10 nM DNA, 20 mM Hepes pH 8.0, 50 mM NaCl, 1 mM MgCl2, 3 mM DTT, 5% glycerol, 10°C; agarose gel 1.3% in 0.5x TBE. The conditions noted are these: protein: recombinant; tags: His (pET28a); chain copies: 2; label: 5' fluorescein (FITC) on forward strand; blunt.
For data set [5] the target is unchanged. Briefly: fluorescence anisotropy; no T3; Hill n 3.5±0.1; Fluorescence anisotropy: 10 nM DNA, 20 mM Hepes pH 8.0, 50 mM NaCl, 1 mM MgCl2, 3 mM DTT, 5% glycerol, 10°C; agarose gel 1.3% in 0.5x TBE. The conditions noted are these: protein: recombinant; tags: His (pET28a); chain copies: 2; label: 5' fluorescein (FITC) on forward strand; blunt.
Data set [6] addresses T1, GATA2-Zf. Briefly: fluorescence anisotropy; Hill n 3.1±0.4; Fluorescence anisotropy: 10 nM DNA, 20 mM Hepes pH 8.0, 50 mM NaCl, 1 mM MgCl2, 3 mM DTT, 5% glycerol, 10°C; agarose gel 1.3% in 0.5x TBE. The conditions noted are these: protein: recombinant; tags: His, thrombin treated; label: 5' fluorescein (FITC) on forward strand; blunt.
For data set [7], the target named is T3, TRβ1 DBD (TRβ1ΔAB/EF) (human, UniProt P10828 102-198).
T3 sequence: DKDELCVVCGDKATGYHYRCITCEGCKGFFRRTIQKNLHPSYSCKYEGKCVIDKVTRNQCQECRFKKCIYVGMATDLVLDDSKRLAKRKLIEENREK
Briefly: gel filtration + agarose EMSA; 100 uM protein; DNA label not stated; Fluorescence anisotropy: 10 nM DNA, 20 mM Hepes pH 8.0, 50 mM NaCl, 1 mM MgCl2, 3 mM DTT, 5% glycerol, 10°C; agarose gel 1.3% in 0.5x TBE. Particulars: protein: recombinant; tags: His (pET28a); label: 5' fluorescein (FITC) on forward strand; blunt. Background: In gel filtration, larger molecules generally elute earlier.

T1 sequence (P23769 291-412): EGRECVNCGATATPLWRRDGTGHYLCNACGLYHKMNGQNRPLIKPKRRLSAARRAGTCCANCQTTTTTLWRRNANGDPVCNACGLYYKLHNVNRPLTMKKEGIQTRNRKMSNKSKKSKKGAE

B1: GATA-RE (canonical) (dsDNA)
DNA 1: CACTTGATAACAGAAAGTGATAACTCT
DNA 2: AGAGTTATCACTTTCTGTTATCAAGTG
As for B1, the dissociation constant (Kd) in data set [1] worked out at 14.9 ± 1.5 nM. In addition, the binding result in data set [2] is listed as “no binding”.

B2: DR4 TRE (dsDNA)
DNA 1: AGTTCAGGTCACAGGAGGTCAGAG
DNA 2: CTCTGACCTCCTGTGACCTGAACT
With B2, the Kd in data set [3] came to 1980 ± 295 nM; in data set [4] it was 2040 ± 266 nM.

B3: TSH NRE (dsDNA)
DNA 1: TGGGTCACCACAGCATCTGCTCACCAATGCAAAGT
DNA 2: ACTTTGCATTGGTGAGCAGATGCTGTGGTGACCCA
In the case of B3, the Kd in data set [5] stood at 316 ± 29 nM.

B4: TSH GATA-RE (dsDNA)
DNA 1: TCAATAGATGCTTTTCAGATAAGAA
DNA 2: TTCTTATCTGAAAAGCATCTATTGA
B4: the equilibrium dissociation constant (Kd) in data set [6] amounted to 689 ± 38.7 nM. The binding result in data set [2] is listed as “no binding”; in data set [7] it was “binds”.
